Test [1] addresses T1, monkey LAG-3 on cells (HEK293-cLAG-3 stable cell line) (monkey, UniProt P18627 24-525 (human entry)).
T1 construct: Full-length monkey (Chinese monkey) LAG-3 gene expressed on HEK293 cells
T1 chain: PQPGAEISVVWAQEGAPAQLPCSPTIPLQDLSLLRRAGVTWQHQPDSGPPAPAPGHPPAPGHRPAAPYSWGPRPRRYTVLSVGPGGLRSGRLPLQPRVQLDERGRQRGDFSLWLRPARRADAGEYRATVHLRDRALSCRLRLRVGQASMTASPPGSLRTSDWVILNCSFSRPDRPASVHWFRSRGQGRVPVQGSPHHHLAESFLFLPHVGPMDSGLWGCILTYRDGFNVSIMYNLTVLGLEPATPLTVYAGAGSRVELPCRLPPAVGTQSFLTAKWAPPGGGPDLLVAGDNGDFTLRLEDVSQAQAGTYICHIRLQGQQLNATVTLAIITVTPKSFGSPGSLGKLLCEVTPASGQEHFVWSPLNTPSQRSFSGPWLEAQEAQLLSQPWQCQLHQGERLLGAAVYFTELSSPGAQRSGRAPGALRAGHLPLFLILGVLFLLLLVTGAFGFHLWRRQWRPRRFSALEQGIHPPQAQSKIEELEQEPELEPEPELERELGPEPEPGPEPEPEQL
The test is described as follows: FACS, HEK293-cLAG-3, antibody 1.600 nM. The source says: (§1) The pIRES plasmid with the monkey-derived full-length gene was transfected into the HEK293 cell line to construct a HEK293 stable cell line containing monkey LAG-3 (herein referred to as HEK293-cLAG-3 stable cell line). The HEK293-hLAG-3 stable cell line and HEK293-cLAG-3 stable cell line were expanded in a T-75 cell culture flask to a 90% confluence. The medium was aspirated, and the cells were washed with HBSS (Hanks' Balanced Salt Solution) 1-2 times, then treated with a enzyme-free cell dissociation fluid (Versene solution: Life technology) and the cells were collected. The cells were washed with HBSS buffer for 1-2 times. After counted, the cells were diluted with HBSS to 1-2×10⁶ cells per ml, added with 1% goat serum blocking solution, incubated on ice for 20-30 minutes, and then washed with HBSS for 2 times by centrifugation. The collected cells were suspended in the FACS buffer (HBSS+1% BSA) to 2×10⁶ cells/ml, added as 100 microliters per well to a 96-well FACS reaction plate, added with 100 microliters per well of the antibody sample to be tested, incubated on ice for 1-2 hours. The plate was washed twice with the FACS buffer by centrifugation, added with 100 microliters of fluorescent (Alexa 488)-labeled secondary antibodies per well, and incubated on ice for 0.5-1.0 hours. The plate was washed 2-3 times with FACS buffer by centrifugation, added with 100 μl fixative solution (4% Paraformaldehyde) per well to suspend the cells. 5-10 minutes later, it was washed 1-2 times with FACS buffer by centrifugation. The cells were suspended with 100 microliters of FACS buffer, FACS (FACSCalibur, BD) was used for detection and the results were analyzed.

Test [2] concerns the target T1, monkey LAG-3 on cells (HEK293-cLAG-3 …). The test is described as follows: FACS, HEK293-cLAG-3, antibody 40.000 nM.
Description: as §1
A general note: In flow cytometry, cells or beads pass a laser one at a time.

For test [3] the target is unchanged. Nature of the test: FACS, HEK293-cLAG-3, antibody 200.000 nM.
Description: as §1

The target of test [4] is T2, mouse LAG-3 protein with hFc tag (mLAG-3-hFc protein) (mouse; human, UniProt Q61790 24-442).
T2 construct: Made in HEK293 cells; also called mouse LAG-3 extracellular domain protein; not shown: human IgG Fc fragment (hFc) of the pCpC vector
T2 sequence: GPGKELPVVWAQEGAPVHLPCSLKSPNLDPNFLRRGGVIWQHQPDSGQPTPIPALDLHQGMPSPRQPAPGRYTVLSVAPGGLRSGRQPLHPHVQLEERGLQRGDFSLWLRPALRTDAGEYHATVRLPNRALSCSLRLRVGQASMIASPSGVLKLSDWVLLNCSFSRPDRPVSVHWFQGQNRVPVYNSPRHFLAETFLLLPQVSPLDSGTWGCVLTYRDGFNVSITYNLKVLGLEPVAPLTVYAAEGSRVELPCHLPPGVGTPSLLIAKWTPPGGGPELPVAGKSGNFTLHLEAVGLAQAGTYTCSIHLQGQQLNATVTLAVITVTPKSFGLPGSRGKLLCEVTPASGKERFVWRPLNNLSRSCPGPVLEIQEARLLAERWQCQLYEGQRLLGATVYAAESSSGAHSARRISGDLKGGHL
The test is described as follows: ELISA, mLAG-3-hFc coated; 0.0000 nM. The protocol:
(§2) The plate was sealed with plastic film and incubated overnight at 4° C. The plate was washed 2 times with the plate washing solution (PBS+0.01% Tween20) on the next day, and added with the blocking solution (PBS+0.01% Tween20+1% BSA) and blocked at room temperature for 1-2 hours. The blocking solution was poured out, and the plate was added with 50-100 μl of the antibody sample to be tested to each well, incubated at 37° C. for 1-2 hours, and washed 2-3 times with a plate washing solution (PBS+0.01% Tween20). HRP (horseradish peroxidase) labeled secondary antibody was added, and the plate was incubated at 37° C. for 1-2 hours, and washed 2-3 times with a plate washing solution (PBS+0.01% Tween20). 100 μl of TMB substrate was added to each well. After incubated at room temperature for 15-30 minutes, the plate was added with 100 μl of stop solution (1.0N HCl) to each well.
Background: ELISA stands for enzyme-linked immunosorbent assay.

The target in test [5] is T3, hFc tagged monkey LAG-3 protein (cLAG-3-hFc protein) (monkey; human).
T3 construct: Made in HEK293 cells; also called monkey LAG-3 extracellular domain protein; not shown: human IgG Fc fragment (hFc) of the pCpC vector
T3 chain: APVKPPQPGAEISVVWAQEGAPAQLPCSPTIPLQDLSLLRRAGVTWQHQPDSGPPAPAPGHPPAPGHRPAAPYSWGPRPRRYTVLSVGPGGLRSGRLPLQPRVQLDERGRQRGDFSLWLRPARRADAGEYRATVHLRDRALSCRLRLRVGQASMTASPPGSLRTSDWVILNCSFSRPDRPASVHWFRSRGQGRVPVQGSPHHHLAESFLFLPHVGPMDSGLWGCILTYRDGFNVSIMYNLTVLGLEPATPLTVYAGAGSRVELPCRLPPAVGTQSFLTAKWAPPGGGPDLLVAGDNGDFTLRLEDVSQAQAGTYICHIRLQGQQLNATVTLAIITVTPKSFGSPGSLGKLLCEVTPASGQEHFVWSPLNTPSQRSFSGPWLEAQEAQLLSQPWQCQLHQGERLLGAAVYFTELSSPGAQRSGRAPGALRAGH
The test is described as follows: ELISA, cLAG-3-hFc coated; 0.6667 nM. The protocol: as §2

Numbering of substitutions follows the chain as printed.

B1: 105F1E10 mouse-human chimeric antibody (antibody, V domains shown)
VH: EVQLQQSGPELVKPGASVKMSCRASGYTFTDFKMHWMKQSHGKSLEWIGYIAPNNGGTAYNQKFRGKATLTVNESSNTAYMELRSLTSEDSAVYYCVDWDDVDYWGQGTTLTVSS
VL: DIKMTQSPSSMYASLGERVTITCKASQDINSYLSWFQQKSGKSPKTLIYRANRLVDGVPSRFSGSGSGQDYSLTISSLEYEDMGIYYCLQYVEFPLTFGAGTKLELK
notes: also called mAb009-105F1E10
B1: the Mean fluorescence intensity in test [1] stood at 14.7; in test [2], 64.6; in test [3] it was 94.5.

B2: 405B8H3 (LAG-3 mouse-human chimeric antibody) (antibody, V domains shown)
VH: QVQLQQSGAELVRPGASVTLSCKASGYTFTDYEMHWVKQTPVHGLEWIGATDPETGNSAYNQKFKGKAIMTADKSSSTAYMELRSLTSEDSAVYYCISTGWNDWGQGTSLTVSS
VL: B1 VL with S40P, N52D, V55L, E81G, V92D, L96Y, A100G, L106I
notes: also called mouse-human chimeric antibody 405B8H3
As to B2, the figures for the OD450 in test [4] and in test [5] were 0.1 OD450 and 3.39 OD450, respectively.

B3: 105F1E10 (LAG-3 mouse-human chimeric antibody) (antibody, V domains shown)
VH: B1 VH
VL: B1 VL
As for B3, the OD450 in test [4] is 0.08 OD450; in test [5] it was 3.38 OD450.

B4: 405B8H3 mouse-human chimeric antibody (antibody, V domains shown)
VH: B2 VH
VL: B1 VL with S40P, N52D, V55L, E81G, V92D, L96Y, A100G, L106I
notes: also called mAb103-405B8H3
As to B4, the Mean fluorescence intensity in test [1] stood at 29.4; in test [2] it was 90.8; in test [3], 108.

B5: 409B11E12 mouse-human chimeric antibody (antibody, V domains shown)
VH: B2 VH with P41T, G56S, N57Y, M70L, S98A
VL: B1 VL with I2L, S40P, V55L, V92D, L96Y, A100G, L106I
notes: also called mAb104-409B11E12
Consider B5, for which the results for the Mean fluorescence intensity in test [1], in test [2] and in test [3] were 32.8, 108 and 114, respectively.

B6: 409D4E10 (LAG-3 mouse-human chimeric antibody) (antibody, V domains shown)
VH: B2 VH with Y27N, G56D, S58T, M70L, A72T, S98T, T99S
VL: B1 VL with S40P, V55L, V92N, L96Y, A100G, L106I
Regarding B6, the OD450 was determined as 0.09 OD450 in test [4] and 3.78 OD450 in test [5].

B7: 409B11E12 (LAG-3 mouse-human chimeric antibody) (antibody, V domains shown)
VH: B2 VH with P41T, G56S, N57Y, M70L, S98A
VL: B1 VL with I2L, S40P, V55L, V92D, L96Y, A100G, L106I
B7: the OD450 in test [4] came out at 0.08 OD450; in test [5] it was 3.36 OD450.

B8: 409D4E10 mouse-human chimeric antibody (antibody, V domains shown)
VH: B2 VH with Y27N, G56D, S58T, M70L, A72T, S98T, T99S
VL: B1 VL with S40P, V55L, V92N, L96Y, A100G, L106I
notes: also called mAb112-409D4E10
With B8, the values for the Mean fluorescence intensity in test [1], in test [2] and in test [3] were 25.8, 93.4 and 103, respectively.

B9: 556F6B8 mouse-human chimeric antibody (antibody, V domains shown)
VH: RVQLKQSGPGLVQPSQSLSITCTVSGFSLIKYGVHWVRQSPGEGLEWLGVIWRGGITDYNAAFMSRLSITKDNSKSQVFFKMNSLQADDTAIYYCAKWDGPLAMDYWGQGTSVTVSS
VL: DIVMTQSHKFLSTSVGDRVSITCKASQDVGTTVAWYQQKPGQSPKLLIYWASTRHTGVPDRFTGSGSGTDFTLTISNVQSEDLADYFCQQYSSYPYTFGGGTKLEIK
notes: also called mAb123-556F6B8; 556F8B8
B9: the Mean fluorescence intensity in test [1] is 19.2; in test [2], 74.4; in test [3], 90.5.

B10: 556F6B8 (LAG-3 mouse-human chimeric antibody) (antibody, V domains shown)
VH: B9 VH
VL: B9 VL
notes: also called 556F8B8
For the molecule B10, the OD450 is 0.09 OD450 in test [4] and 3.7 OD450 in test [5].

These data come from patent publication US20210155689A1 (SHANGHAI PHARMAEXPLORER, published 2021).
